Paper doi:10.1101/2020.03.10.985002

T1: HY5 (UniProt O24646 1-168)
T1 sequence: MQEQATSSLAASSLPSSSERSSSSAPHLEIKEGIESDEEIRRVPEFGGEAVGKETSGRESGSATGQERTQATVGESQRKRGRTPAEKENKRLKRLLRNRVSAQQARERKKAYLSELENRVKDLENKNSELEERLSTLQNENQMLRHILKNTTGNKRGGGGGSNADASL

B1: PAP8 promoter box probe (oP8Box) (dsDNA)
DNA 1: GGATACCAAAAATGACGCTCTTAATTATTTCC
DNA 2: GGAAATAATTAAGAGCGTCATTTTTGGTATCC
B2: G-box cold competitor (GbH5) (dsDNA)
DNA 1: GTTCTAGTGTATCAGACACGTGTCGACAAACTGGTGG
DNA 2: CCACCAGTTTGTCGACACGTGTCTGATACACTAGAA

How the values were obtained:
HY5 [1] = target: T1, HY5; assay: EMSA
HY5 [2] = target: T1, HY5; assay: competition

Binder	binding result (HY5 [1])	binding result (HY5 [2])
B1	binds	–
B2	–	binds
